This assay concerns the target T1, recombinant human Trop-2-his protein (ACCESSION NO.: NP_002344.2, AA 1-274) (human, UniProt P09758 27-274).
T1 construct: range 27-274; also called recombinant human Trop-2 protein; recombinant human Trop-2 extracellular domain; not shown: his tag
T1 sequence (looked up): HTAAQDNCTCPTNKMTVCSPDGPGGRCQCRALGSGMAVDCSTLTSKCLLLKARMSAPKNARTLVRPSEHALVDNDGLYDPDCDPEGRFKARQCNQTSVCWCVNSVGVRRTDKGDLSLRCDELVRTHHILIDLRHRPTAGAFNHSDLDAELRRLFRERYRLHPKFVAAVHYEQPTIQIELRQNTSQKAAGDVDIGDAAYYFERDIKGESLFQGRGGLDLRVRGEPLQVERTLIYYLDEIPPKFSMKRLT
In words: BLI, antibody on AHC sensor, Trop-2-his 60 nM. The protocol:
5-6 days after cell transfection, culture supernatants were purified through ProA affinity chromatography column to obtain different humanized antibodies. Affinities of the obtained antibodies were determined by an assay including capturing Fc fragments of the antibodies with anti-human IgG Fc capture (AHC) biosensors using Octet QKe system instrument from Fortebio. For the assay, each of the humanized antibodies and control antibody Sacituzumab was diluted to 4 μg/ml in PBS, and was allowed to flow through the surface of an AHC biosensor (Cat.: 18-0015, PALL) for 120 s. Recombinant human Trop-2-his protein (ACCESSION NO.: NP_002344.2, AA 1-274) was used as a mobile phase, and its concentration was 60 nM. The binding time was 100 s and the dissociation time was 300 s. When the assay was finished, data from which the response values of blank control had been deducted were fitted to a 1:1 Langmuir binding model using software, and then kinetic constants for antigen-antibody binding were calculated.
Affinities of the antibodies obtained from the combinations of mutants of murine antibody 23-12, chimeric antibody ch4-3 and control antibody Sacituzumab to recombinant human Trop-2-his protein were determined by ForteBio (Table 8).
On the technique in general: Biolayer interferometry detects binding as a change in optical thickness at a sensor tip.

B1: h4-3-4 (antibody, human IgG1, kappa, V domains shown)
VH: EVQLVQSGPEVKKPGASVKVSCKASGFTFTDYVIGWVRQAPGQGLEWIGEIYLGSGTIYYTEKFKGRVTMTADTSTSTAYMELSSLRSEDTAVYYCARGSIFYFDYWGQGTLVTVSS
VL: DIQLTQSPSSLSASVGDRVTITCSASSSVSYMYWYQQKPGKAPKLLIYDTSTLASGVPSRFSGSGSGTDFTLTISSLQPEDFATYYCQQWSSYPYTFGQGTKLEIKR
The Kd is the free concentration of one partner at which half of the binding sites on the other are occupied at equilibrium, for simple one-to-one binding. With B1, the Kd turned out to be 636 pM.

B2: h4-3-12 (antibody, human IgG1, kappa, V domains shown)
VH: EVQLVQSGPEVKKPGASVKVSCKASGFTFTDYVIGWVRQAPGQGLEWIGEIYLGSGTIYYTEKFKGRVTMTADTSTSTAYMELSSLRSEDTAVYYCARGSIFYFDYWGQGTLVTVSS
VL: DIQLTQSPSSLSASVGDRVTITCSASSSVSYMYWYQQKPGKAPKLLIYDASTLASGVPSRFSGSGSGTDFTLTISSLQPEDFATYYCQQWSSYPYTFGQGTKLEIKR
As for B2, the Kd stood at 1030 pM.

B3: h4-3-15 (antibody, human IgG1, kappa, V domains shown)
VH: EVQLVQSGPEVKKPGASVKVSCKASGFTFTDYVIGWVRQAPGQGLEWIGEIYLGSGTIYYTQKFKGRVTMTADTSTSTAYMELSSLRSEDTAVYYCARGSIFPFDYWGQGTLVTVSS
VL: DIQLTQSPSSLSASVGDRVTITCSASSSVSYMYWYQQKPGKAPKLLIYDTSTLQSGVPSRFSGSGSGTDFTLTISSLQPEDFATYYCQQWSSYPYTFGQGTKLEIKR
Take B3: the Kd amounted to 687 pM.

B4: h4-3-17 (antibody, human IgG1, kappa, V domains shown)
VH: EVQLVQSGPEVKKPGASVKVSCKASGFTFTDYVIGWVRQAPGQGLEWIGEIYLGSGTIYYTEKFKGRVTMTADTSTSTAYMELSSLRSEDTAVYYCARGSIFPFDYWGQGTLVTVSS
VL: DIQLTQSPSSLSASVGDRVTITCSASSSVSYMYWYQQKPGKAPKLLIYDTSTLASGVPSRFSGSGSGTDFTLTISSLQPEDFATYYCQQWNSYPYTFGQGTKLEIKR
Take B4: the Kd came to 542 pM.

B5: h4-3-10 (antibody, human IgG1, kappa, V domains shown)
VH: EVQLVQSGPEVKKPGASVKVSCKASGFTFTDYVIGWVRQAPGQGLEWIGEIYLGSGTIYYAEKFKGRVTMTADTSTSTAYMELSSLRSEDTAVYYCARGSIFPFDYWGQGTLVTVSS
VL: DIQLTQSPSSLSASVGDRVTITCSASSSVSYMYWYQQKPGKAPKLLIYDASTLASGVPSRFSGSGSGTDFTLTISSLQPEDFATYYCQQWSSYPYTFGQGTKLEIKR
As to B5, the Kd was 763 pM.

B6: h4-3-7 (antibody, human IgG1, kappa, V domains shown)
VH: EVQLVQSGPEVKKPGASVKVSCKASGFTFTDYVIGWVRQAPGQGLEWIGEIYLGSGTIYYTQKFKGRVTMTADTSTSTAYMELSSLRSEDTAVYYCARGSIFPFDYWGQGTLVTVSS
VL: DIQLTQSPSSLSASVGDRVTITCRASSSVSYMYWYQQKPGKAPKLLIYDTSTLASGVPSRFSGSGSGTDFTLTISSLQPEDFATYYCQQWSSYPYTFGQGTKLEIKR
Turning to B6, the Kd was determined as 466 pM.

B7: h4-3-14 (antibody, human IgG1, kappa, V domains shown)
VH: EVQLVQSGPEVKKPGASVKVSCKASGFTFTDYVIGWVRQAPGQGLEWIGEIYLGSGTIYYAEKFKGRVTMTADTSTSTAYMELSSLRSEDTAVYYCARGSIFPFDYWGQGTLVTVSS
VL: DIQLTQSPSSLSASVGDRVTITCSASSSVSYMYWYQQKPGKAPKLLIYDTSTLQSGVPSRFSGSGSGTDFTLTISSLQPEDFATYYCQQWSSYPYTFGQGTKLEIKR
Consider B7, for which the Kd was 571 pM.

B8: h4-3-13 (antibody, human IgG1, kappa, V domains shown)
VH: EVQLVQSGPEVKKPGASVKVSCKASGFTFTDYVIGWVRQAPGQGLEWIGEIYLGSGTIYYTEKFKGRVTMTADTSTSTAYMELSSLRSEDTAVYYCARGSIFPFDYWGQGTLVTVSS
VL: DIQLTQSPSSLSASVGDRVTITCSASSSVSYMYWYQQKPGKAPKLLIYDTSTLQSGVPSRFSGSGSGTDFTLTISSLQPEDFATYYCQQWSSYPYTFGQGTKLEIKR
As for B8, the equilibrium dissociation constant (Kd) amounted to 281 pM.

B9: h4-3-6 (antibody, human IgG1, kappa, V domains shown)
VH: EVQLVQSGPEVKKPGASVKVSCKASGFTFTDYVIGWVRQAPGQGLEWIGEIYLGSGTIYYAEKFKGRVTMTADTSTSTAYMELSSLRSEDTAVYYCARGSIFPFDYWGQGTLVTVSS
VL: DIQLTQSPSSLSASVGDRVTITCRASSSVSYMYWYQQKPGKAPKLLIYDTSTLASGVPSRFSGSGSGTDFTLTISSLQPEDFATYYCQQWSSYPYTFGQGTKLEIKR
Take B9: the Kd is 397 pM.

B10: h4-3-19 (antibody, human IgG1, kappa, V domains shown)
VH: EVQLVQSGPEVKKPGASVKVSCKASGFTFTDYVIGWVRQAPGQGLEWIGEIYLGSGTIYYTQKFKGRVTMTADTSTSTAYMELSSLRSEDTAVYYCARGSIFPFDYWGQGTLVTVSS
VL: DIQLTQSPSSLSASVGDRVTITCSASSSVSYMYWYQQKPGKAPKLLIYDTSTLASGVPSRFSGSGSGTDFTLTISSLQPEDFATYYCQQWNSYPYTFGQGTKLEIKR
For the molecule B10, the Kd was 599 pM.

B11: h4-3-16 (antibody, human IgG1, kappa, V domains shown)
VH: EVQLVQSGPEVKKPGASVKVSCKASGFTFTDYVIGWVRQAPGQGLEWIGEIYLGSGTIYYTEKFKGRVTMTADTSTSTAYMELSSLRSEDTAVYYCARGSIFYFDYWGQGTLVTVSS
VL: DIQLTQSPSSLSASVGDRVTITCSASSSVSYMYWYQQKPGKAPKLLIYDTSTLQSGVPSRFSGSGSGTDFTLTISSLQPEDFATYYCQQWSSYPYTFGQGTKLEIKR
Regarding B11, the Kd came out at 1530 pM.

B12: h4-3-18 (antibody, human IgG1, kappa, V domains shown)
VH: EVQLVQSGPEVKKPGASVKVSCKASGFTFTDYVIGWVRQAPGQGLEWIGEIYLGSGTIYYAEKFKGRVTMTADTSTSTAYMELSSLRSEDTAVYYCARGSIFPFDYWGQGTLVTVSS
VL: DIQLTQSPSSLSASVGDRVTITCSASSSVSYMYWYQQKPGKAPKLLIYDTSTLASGVPSRFSGSGSGTDFTLTISSLQPEDFATYYCQQWNSYPYTFGQGTKLEIKR
As for B12, the Kd was 671 pM.

B13: h4-3-11 (antibody, human IgG1, kappa, V domains shown)
VH: EVQLVQSGPEVKKPGASVKVSCKASGFTFTDYVIGWVRQAPGQGLEWIGEIYLGSGTIYYTQKFKGRVTMTADTSTSTAYMELSSLRSEDTAVYYCARGSIFPFDYWGQGTLVTVSS
VL: DIQLTQSPSSLSASVGDRVTITCSASSSVSYMYWYQQKPGKAPKLLIYDASTLASGVPSRFSGSGSGTDFTLTISSLQPEDFATYYCQQWSSYPYTFGQGTKLEIKR
Turning to B13, the Kd stood at 802 pM.

B14: h4-3-8 (antibody, human IgG1, kappa, V domains shown)
VH: EVQLVQSGPEVKKPGASVKVSCKASGFTFTDYVIGWVRQAPGQGLEWIGEIYLGSGTIYYTEKFKGRVTMTADTSTSTAYMELSSLRSEDTAVYYCARGSIFYFDYWGQGTLVTVSS
VL: DIQLTQSPSSLSASVGDRVTITCRASSSVSYMYWYQQKPGKAPKLLIYDTSTLASGVPSRFSGSGSGTDFTLTISSLQPEDFATYYCQQWSSYPYTFGQGTKLEIKR
For B14, the Kd turned out to be 862 pM.

B15: h4-3-5 (antibody, human IgG1, kappa, V domains shown)
VH: EVQLVQSGPEVKKPGASVKVSCKASGFTFTDYVIGWVRQAPGQGLEWIGEIYLGSGTIYYTEKFKGRVTMTADTSTSTAYMELSSLRSEDTAVYYCARGSIFPFDYWGQGTLVTVSS
VL: DIQLTQSPSSLSASVGDRVTITCRASSSVSYMYWYQQKPGKAPKLLIYDTSTLASGVPSRFSGSGSGTDFTLTISSLQPEDFATYYCQQWSSYPYTFGQGTKLEIKR
Turning to B15, the Kd worked out at 273 pM.

B16: h4-3-9 (antibody, human IgG1, kappa, V domains shown)
VH: EVQLVQSGPEVKKPGASVKVSCKASGFTFTDYVIGWVRQAPGQGLEWIGEIYLGSGTIYYTEKFKGRVTMTADTSTSTAYMELSSLRSEDTAVYYCARGSIFPFDYWGQGTLVTVSS
VL: DIQLTQSPSSLSASVGDRVTITCSASSSVSYMYWYQQKPGKAPKLLIYDASTLASGVPSRFSGSGSGTDFTLTISSLQPEDFATYYCQQWSSYPYTFGQGTKLEIKR
For the molecule B16, the equilibrium dissociation constant (Kd) turned out to be 317 pM.

The record behind these values is US20240092930A1 (MABWELL SHANGHAI BIOSCIENCE, published 2024).
